In PMC1351370:
Where two headings read alike, the source gives them in different places.

Legend:
[1] = molecular target: T1, HIV-1 nucleocapsid protein NC (wild type) (HIV-1 pNL4-3, UniProt P12493 378-432); assay: competition
[2] = molecular target: T1, HIV-1 nucleocapsid protein NC (wild …); assay: SPR
[3] = molecular target: T1, HIV-1 nucleocapsid protein NC (wild …); assay: tryptophan fluorescence quenching
[4] = molecular target: T1, HIV-1 nucleocapsid protein NC (wild …); assay: competition; remark: listed apart in the source
[5] = molecular target: T1, HIV-1 nucleocapsid protein NC (wild …); assay: tryptophan fluorescence quenching; remark: listed apart in the source

B1: (TG)10 (ssDNA)
DNA: TGTGTGTGTGTGTGTGTGTG
IC50 [1]: 0.037 ± 0.00273 µM

B2: (A)8 (ssDNA)
DNA: AAAAAAAA
binding result [2]: no binding

B3: (A)30 (ssDNA)
DNA: AAAAAAAAAAAAAAAAAAAAAAAAAAAAAA
IC50 [1]: 6.68 ± 0.785 µM

B4: (TG)4 (ssDNA)
DNA: TGTGTGTG
Kd [3]: 4.7 ± 0.67 nM
IC50 [4]: 264 ± 101 nM
Kd [5]: 3.4 ± 0.07 nM
